The labels stand for the following.
B1: C-terminal GFP-tagged Atg16L1 WT (full-length) [mouse] / N-terminally V5 epitope-tagged (full-length) [mouse] (parent)
chain 1: MTSEMESSLEVSFSSSCAVSGASGCLPPARSRIFKIIVIGDSNVGKTCLTYRFCAGRFPDRTEATIGVDFRERAVDIDGERIKIQLWDTAGLERFRKSMVQHYYRNVHAVVFVYDMTNMASFHSLPAWIEECKQHLLANDIPRILVGNKCDLRSAIQVPTDLAQKFADTHSMPLFETSAKNPNDNDHVEAIFMTLAHKLKSHKPLMLSQLPDNRISLKPETKPAVTCWC
chain 2: MSSGLRAADFPRWKRHIAEELRRRDRLQRQAFEEIILQYTKLLEKSDLHSVLTQKLQAEKHDMPNRHEISPGHDGAWNDSQLQEMAQLRIKHQEELTELHKKRGELAQLVIDLNNQMQQKDKEIQMNEAKISEYLQTISDLETNCLDLRTKLQDLEVANQTLKDEYDALQITFTALEEKLRKTTEENQELVTRWMAEKAQEANRLNAENEKDSRRRQARLQKELAEAAKEPLPVEQDDDIEVIVDETSDHTEETSPVRAVSRAATKRLSQPAGGLLDSITNIFGRRSVSSIPVPQDIMDTHPASGKDVRVPTTASYVFDAHDGEVNAVQFSPGSRLLATGGMDRRVKLWEAFGDKCEFKGSLSGSNAGITSIEFDSAGAYLLAASNDFASRIWTVDDYRLRHTLTGHSGKVLSAKFLLDNARIVSGSHDRTLKLWDLRSKVCIKTVFAGSSCNDIVCTEQCVMSGHFDKKIRFWDIRSESVVREMELLGKITALDLNPERTELLSCSRDDLLKVIDLRTNAVKQTFSAPGFKCGSDWTRVVFSPDGSYVAAGSAEGSLYVWSVLTGKVEKVLSKQHSSSINAVAWAPSGLHVVSVDKGSRAVLWAQP
B2: N-terminally V5 epitope-tagged WT (full-length) [mouse] / C-terminal GFP-tagged Atg16L1 WT (full-length) [mouse] (parent)
chain 1: B1 chain 1 with L92Q
chain 2: B1 chain 2

Here are results for 6 variants from article PMC7395093.

Substitutions are numbered along the chain they refer to.

In the first experiment the parent is B1. Briefly: GFP co-immunoprecipitation, western blot band quantification. As to conditions: with N-terminally V5 epitope-tagged Rab33B Q92L (full-length) [mouse]; Overexpression was done in HEK293 cells; read off a plot. (Immunoblotting shows a protein as a band on a membrane.)
For chain 2 N206K, the response was found to be 0.12 a.u. For the variant chain 2 A202W, the response was 0.06 a.u. Same read-out and setting: under chain 2 K198A stands 0.13 a.u.

Still in this experiment, the particulars now being: with C-terminal GFP-tagged Atg16L1 WT (full-length) [mouse]; Overexpression was done in HEK293 cells; read off a plot.
For chain 1 F70E, the response was 0.32 a.u. chain 1 F70A: the response is 0.04 a.u.

In a further experiment the parent is B2. The description is as above. The note with it: with C-terminal GFP-tagged Atg16L1 WT (full-length) [mouse]; Overexpression was done in HEK293 cells; read off a plot.
On to chain 1 T47N, for which the response amounted to 0.6 a.u.
